Laboratory results from the FLAb antibody collection (doi:10.1101/2023.12.08.570889).

Target: IL36R
Test: Kd (SPR)

| Binder | Kd |
| --- | --- |
| unnamed (protein) chain 1: QVQLVQSGAEVKKPGASVKVSCKASGYSFTSSWIHWVKQAPGQGLEWMGEINPGNVRTNYNENFRNKVTMTVDTSISTAYMELSRLRSDDTAVYYCTRVRFGEPYFDYWGQGTLVTVSS chain 2: QIVLTQSPGTLSLSPGERATMTCTASSSVSSSYFHWYQQKPGQAPRLWIYRTSRLASGVPDRFSGSGSGTDFTLTISRLEPEDAATYYCHQFHRSPLTFGAGTKLEIK | 3.28 nM |
| unnamed (protein) chain 1: QVQLVQSGAEVKKPGASVKVSCKASGYSFTSSWIHWVKQAPGQGLEWMGEINPGNVRTNYNENFRNKVTMTVDTSISTAYMELSRLRSDDTAVYYCTRVRYGEPWFDYWGQGTLVTVSS chain 2: QIVLTQSPGTLSLSPGERATMTCTASSSVSSSYFHWYQQKPGQAPRLWIYRTSRLASGVPDRFSGSGSGTDFTLTISRLEPEDAATYYCHQFHRSPLTFGAGTKLEIK | 0.888 nM |
| unnamed (protein) chain 1: QVQLVQSGAEVKKPGASVKVSCKASGYSFTSSWIHWVKQAPGQGLEWMGEINPGNVRTNYNENFRNKVTMTVDTSISTAYMELSRLRSDDTAVYYCTRVSYGEPWFDYWGQGTLVTVSS chain 2: QIVLTQSPGTLSLSPGERATMTCTASSSVSSSYFHWYQQKPGQAPRLWIYRTSRLASGVPDRFSGSGSGTDFTLTISRLEPEDAATYYCHQFHRSPLTFGAGTKLEIK | 1.4 nM |
| unnamed (protein) chain 1: QVQLVQSGAEVKKPGASVKVSCKASGYSFTSSWIHWVKQAPGQGLEWMGEINPGNVRTNYNENFRNKVTMTVDTSISTAYMELSRLRSDDTAVYYCTRVQYGYPYFDYWGQGTLVTVSS chain 2: QIVLTQSPGTLSLSPGERATMTCTASSSVSSSYFHWYQQKPGQAPRLWIYRTSRLASGVPDRFSGSGSGTDFTLTISRLEPEDAATYYCHQFHRSPLTFGAGTKLEIK | 1.87 nM |
| unnamed (protein) chain 1: QVQLVQSGAEVKKPGASVKVSCKASGYSFTSSWIHWVKQAPGQGLEWMGEINPGNVRTNYNENFRNKVTMTVDTSISTAYMELSRLRSDDTAVYYCTRVQFGEPYFDYWGQGTLVTVSS chain 2: QIVLTQSPGTLSLSPGERATMTCTASSSVSSSYFHWYQQKPGQAPRLWIYRTSRLASGVPDRFSGSGSGTDFTLTISRLEPEDAATYYCHQFHRSPLTFGAGTKLEIK | 1.61 nM |
| unnamed (protein) chain 1: QVQLVQSGAEVKKPGASVKVSCKASGYSFTSSWIHWVKQAPGQGLEWMGEINPGNVRTNYNENFRNKVTMTVDTSISTAYMELSRLRSDDTAVYYCTRVMYGEPYFDYWGQGTLVTVSS chain 2: QIVLTQSPGTLSLSPGERATMTCTASSSVSSSYFHWYQQKPGQAPRLWIYRTSRLASGVPDRFSGSGSGTDFTLTISRLEPEDAATYYCHQFHRSPLTFGAGTKLEIK | 3.16 nM |

Second part, the binder after the results:

| Kd | Binder |
| --- | --- |
| 12.3 nM | unnamed (protein) chain 1: QVQLVQSGAEVKKPGASVKVSCKASGYSFTSSWIHWVKQAPGQGLEWMGEINPGNVRTNYNENFRNKVTMTVDTSISTAYMELSRLRSDDTAVYYCTRIRYGEPYFDYWGQGTLVTVSS chain 2: QIVLTQSPGTLSLSPGERATMTCTASSSVSSSYFHWYQQKPGQAPRLWIYRTSRLASGVPDRFSGSGSGTDFTLTISRLEPEDAATYYCHQFHRSPLTFGAGTKLEIK |
| 0.689 nM | unnamed (protein) chain 1: QVQLVQSGAEVKKPGASVKVSCKASGYSFTSSWIHWVKQAPGQGLEWMGEINPGNVRTNYNENFRNKVTMTVDTSISTAYMELSRLRSDDTAVYYCTRVRFGYPWFDYWGQGTLVTVSS chain 2: QIVLTQSPGTLSLSPGERATMTCTASSSVSSSYFHWYQQKPGQAPRLWIYRTSRLASGVPDRFSGSGSGTDFTLTISRLEPEDAATYYCHQFHRSPLTFGAGTKLEIK |
| 0.759 nM | unnamed (protein) chain 1: QVQLVQSGAEVKKPGASVKVSCKASGYSFTSSWIHWVKQAPGQGLEWMGEINPGNVRTNYNENFRNKVTMTVDTSISTAYMELSRLRSDDTAVYYCTRVSYGEPYFDYWGQGTLVTVSS chain 2: QIVLTQSPGTLSLSPGERATMTCTASSSVSSSYFHWYQQKPGQAPRLWIYRTSRLASGVPDRFSGSGSGTDFTLTISRLEPEDAATYYCHQFHRSPLTFGAGTKLEIK |
| 1.04 nM | unnamed (protein) chain 1: QVQLVQSGAEVKKPGASVKVSCKASGYSFTSSWIHWVKQAPGQGLEWMGEINPGNVRTNYNENFRNKVTMTVDTSISTAYMELSRLRSDDTAVYYCTRVRYGYPWFDYWGQGTLVTVSS chain 2: QIVLTQSPGTLSLSPGERATMTCTASSSVSSSYFHWYQQKPGQAPRLWIYRTSRLASGVPDRFSGSGSGTDFTLTISRLEPEDAATYYCHQFHRSPLTFGAGTKLEIK |
